Data on five substances can be found in patent US20200277374A1 (Alector, published 2020).

One experiment deals with T1, Y50A (human, UniProt Q9Y286).
T1 construct: clone of the siglec-7 mutation library; also called Siglec-7 Y50A
Nature of the experiment: flow cytometry on HEK-293T cells expressing the mutant; mean % of wild-type signal (range of duplicates). On the procedure:
(§1) Shotgun mutagenesis epitope mapping of anti-siglec-7 antibodies was performed using an alanine-scanning library for the siglec-7 protein. […] Each of residues 19 to 353 was mutated, representing the siglec-7 extracellular domain, most to alanine, while alanine codons were mutated to serine. In total, 335 siglec-7 mutant expression constructs were generated, sequences confirmed, and arrayed into a 384-well plate, one mutant per well.
(§2) Cells were then incubated with MAbs diluted in 10% o normal goat serum (NGS) (Sigma-Aldrich, St. Louis, Mo.). Prior to library screening, primary MAb concentrations were determined using an independent immunofluorescence titration curve against cells expressing wild-type siglec-7 to ensure that signals were within the linear range of detection. MAbs were detected using 3.75 μg/ml AlexaFluor488-conjugated secondary antibody (Jackson immunoResearch Laboratories, Westgrove, Pa.) in 10% NGS. Cells were washed twice with PBS−/− and resuspended in Cellstripper (Cellgro, Manassas, Va.) with 0.1% BSA (Sigma-Aldrich, St. Louis, Mo.). Mean cellular fluorescence was detected using the Intellicyt high throughput flow cytometer (HTFC, Intellicyt, Albuquerque, N. Mex.). MAb reactivities against each mutant clone were calculated relative to wild-type siglec-7 protein reactivity by subtracting the signal from mock-transfected controls, and normalizing to the signal from wild-type siglec-7-transfected controls.

Another experiment deals with T2, I72A (human, UniProt Q9Y286).
T2 construct: clone of the siglec-7 mutation library; also called Siglec-7 I72A
The description is as above. As for the experimental part: as §1, §2

The target in a further experiment is T3, W74A (human, UniProt Q9Y286).
T3 construct: clone of the siglec-7 mutation library; also called Siglec-7 W74A
The description is as above. As for the experimental part: as §1, §2

For another experiment, the target named is T4, N81A (human, UniProt Q9Y286).
T4 construct: clone of the siglec-7 mutation library; also called Siglec-7 N81A
The experiment is described as above. As for the experimental part:
as §1, §2

The next experiment has as its target T5, T103A (human, UniProt Q9Y286).
T5 construct: clone of the siglec-7 mutation library; also called Siglec-7 T103A
Described as above. As for the experimental part: as §1, §2

The target of a further experiment is T6, K104A (human, UniProt Q9Y286).
T6 construct: clone of the siglec-7 mutation library; also called Siglec-7 K104A
The experiment is described as above. As for the experimental part:
as §1, §2

Another experiment concerns the target T7, T107A (human, UniProt Q9Y286).
T7 construct: clone of the siglec-7 mutation library; also called Siglec-7 T107A
Described as above. As for the experimental part: as §1, §2

The target of a further experiment is T8, R124A (human, UniProt Q9Y286).
T8 construct: clone of the siglec-7 mutation library; also called Siglec-7 R124A
Described as above. As for the experimental part: as §1, §2

The target of the next experiment is T9, M185A (human, UniProt Q9Y286).
T9 construct: clone of the siglec-7 mutation library; also called Siglec-7 M185A
Described as above. As for the experimental part: as §1, §2

The target of a further experiment is T10, M30A (human, UniProt Q9Y286).
T10 construct: clone of the siglec-7 mutation library; also called Siglec-7 M30A
Described as above. As for the experimental part:
as §1, §2

Another experiment has as its target T11, V44A (human, UniProt Q9Y286).
T11 construct: clone of the siglec-7 mutation library; also called Siglec-7 V44A
The description is as above. As for the experimental part:
as §1, §2

For another experiment, the target named is T12, R45A (human, UniProt Q9Y286).
T12 construct: clone of the siglec-7 mutation library; also called Siglec-7 R45A
The description is as above. On the procedure:
as §1, §2

In the next experiment the target is T13, S47A (human, UniProt Q9Y286).
T13 construct: clone of the siglec-7 mutation library; also called Siglec-7 S47A
The experiment is described as above. As for the experimental part:
as §1, §2

The next experiment deals with T14, F48A (human, UniProt Q9Y286).
T14 construct: clone of the siglec-7 mutation library; also called Siglec-7 F48A
The description is as above. On the procedure: as §1, §2

Experiment [1] deals with human Siglec-7 expressed on human cells (primary monocytes, dendritic cells, macrophages, NK cells, microglia, U937 cells, human cells of humanized mice) (human) (UniProt Q9Y286). Nature of the experiment: cell-based or functional assay.
The target is the same in experiment [2]. Description: FACS, human primary monocytes, 10 ug/ml mAb. A general note: A flow cytometer gives signals particle by particle.
The target is the same in experiment [3]. Description: FACS, human primary macrophages, 10 ug/ml mAb.
For experiment [4] the target is unchanged. Nature of the experiment: FACS, human primary dendritic cells, 10 ug/ml mAb.
Experiment [5] has as its target T15, Siglec-7-Fc (plate immobilized) (human, UniProt Q9Y286 19-357, limits assumed).
T15 construct: also called Siglec-7-Fc protein; immobilized Siglec-7; not shown: Fc part
Description: RBC solid adhesion assay, plate-coated Siglec-7-Fc, antibody 0.5 or 1.0 ug/ml; % of RBC binding without antibody. As for the experimental part: To determine which antibodies compete with ligand binding to Siglec-7, a red blood cell (RBC) solid adhesion assay was carried out in accordance with standard protocols (Kelm et al., Current Biology, 1994). Red blood cells are highly decorated with glycoproteins containing sialic acids: therefore, the ability of an antibody to block RBC binding to immobilized Siglec-7 can be used to determine ligand interference. Briefly, 5 μg/ml Siglec-7-Fc was coated overnight at RT in 96 well Immunolon plates, then washed with PBS, blocked for one hour with binding buffer (PBS containing %0.25 BSA 1 mM CaCl₂), Siglec-7 antibodies (0.5 μg/ml or 1.0 μg/ml) were bound for one hour at RT with gentle rocking. After removal of unbound antibody, red blood cells were added to each well at a concentration of 3.0×10⁶ cells per ml and incubated at RT for one hour. Unbound RBCs were then carefully washed off 3× with PBS, and water was added to each well for hypotonic lysis of bound RBCs. The plate was transferred to −80° C. for 10 minutes, followed by 37° C. for 15 minutes. Bound RBCs were detected by peroxidase activity, followed by 2N sulfuric acid to stop the reaction. Signal was detected at […]. Data was calculated as a percent of RBC binding to plate bound Siglec-7-Fc in the absence of antibody.

The target in experiment [6] is human Siglec-7 expressed on human cells (primary monocytes, dendritic cells, macrophages, NK cells, microglia, U937 cells, human cells of humanized mice) (human) (UniProt Q9Y286). Nature of the experiment: FACS, human primary monocytes; isotype control (background).
The target is the same in experiment [7]. Description: FACS, human primary macrophages; isotype control (background).
Experiment [8] shares this target. Description: FACS, human primary dendritic cells; isotype control (background).
The target in experiment [9] is T15, Siglec-7-Fc (plate immobilized). Description: RBC solid adhesion assay, plate-coated Siglec-7-Fc; isotype control.

T15 sequence (Q9Y286 19-357 limits assumed): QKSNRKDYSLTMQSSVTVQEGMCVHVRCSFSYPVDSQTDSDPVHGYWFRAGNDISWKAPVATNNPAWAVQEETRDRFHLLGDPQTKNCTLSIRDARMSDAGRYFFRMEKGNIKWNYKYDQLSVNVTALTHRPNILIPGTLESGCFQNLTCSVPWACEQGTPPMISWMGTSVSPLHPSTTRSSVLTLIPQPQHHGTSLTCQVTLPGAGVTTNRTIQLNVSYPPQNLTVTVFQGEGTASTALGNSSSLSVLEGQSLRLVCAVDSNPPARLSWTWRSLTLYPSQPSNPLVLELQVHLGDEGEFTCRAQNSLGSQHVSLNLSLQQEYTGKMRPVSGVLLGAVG
Chain of human Siglec-7 expressed on human cells (primary monocytes, dendritic cells, macrophages, NK cells, microglia, U937 cells, human cells of humanized mice) (human) (Q9Y286 19-467): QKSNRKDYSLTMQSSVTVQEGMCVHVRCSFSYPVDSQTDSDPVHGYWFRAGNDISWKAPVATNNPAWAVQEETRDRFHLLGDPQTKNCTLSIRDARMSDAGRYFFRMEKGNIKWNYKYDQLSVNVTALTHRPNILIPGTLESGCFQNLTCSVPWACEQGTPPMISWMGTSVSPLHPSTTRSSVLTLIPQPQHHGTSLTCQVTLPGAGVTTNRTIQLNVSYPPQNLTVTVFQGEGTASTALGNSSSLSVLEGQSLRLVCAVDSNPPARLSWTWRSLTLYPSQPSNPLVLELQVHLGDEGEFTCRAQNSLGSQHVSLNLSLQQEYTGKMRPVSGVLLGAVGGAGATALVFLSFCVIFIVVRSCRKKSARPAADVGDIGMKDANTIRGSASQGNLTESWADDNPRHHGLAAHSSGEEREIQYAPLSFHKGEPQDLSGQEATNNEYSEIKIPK
T6 sequence (Q9Y286 19-467 K104A limits assumed): as the sequence (Q9Y286 19-467) above, with K86A counted along it
T3 sequence (Q9Y286 19-467 W74A limits assumed): as the sequence (Q9Y286 19-467) above, with W56A counted along it
T5 sequence (Q9Y286 19-467 T103A limits assumed): as the sequence (Q9Y286 19-467) above, with T85A counted along it
T14 sequence (Q9Y286 19-467 F48A limits assumed): as the sequence (Q9Y286 19-467) above, with F30A counted along it
T7 sequence (Q9Y286 19-467 T107A limits assumed): as the sequence (Q9Y286 19-467) above, with T89A counted along it
T1 sequence (Q9Y286 19-467 Y50A limits assumed): as the sequence (Q9Y286 19-467) above, with Y32A counted along it
T10 sequence (Q9Y286 19-467 M30A limits assumed): as the sequence (Q9Y286 19-467) above, with M12A counted along it
T13 sequence (Q9Y286 19-467 S47A limits assumed): as the sequence (Q9Y286 19-467) above, with S29A counted along it
T11 sequence (Q9Y286 19-467 V44A limits assumed): as the sequence (Q9Y286 19-467) above, with V26A counted along it
T12 sequence (Q9Y286 19-467 R45A limits assumed): as the sequence (Q9Y286 19-467) above, with R27A counted along it
T8 sequence (Q9Y286 19-467 R124A limits assumed): as the sequence (Q9Y286 19-467) above, with R106A counted along it
T9 sequence (Q9Y286 19-467 M185A limits assumed): as the sequence (Q9Y286 19-467) above, with M167A counted along it
T4 sequence (Q9Y286 19-467 N81A limits assumed): as the sequence (Q9Y286 19-467) above, with N63A counted along it
T2 sequence (Q9Y286 19-467 I72A limits assumed): as the sequence (Q9Y286 19-467) above, with I54A counted along it

Regarding 6-434 MAb (antibody), the Binding Reactivity (% WT) was determined as 97.9 % WT with Y50A; 64.2 % WT with I72A; 74.9 % WT with W74A; 112 % WT with N81A; 77.5 % WT with T103A; 83.8 % WT with K104A. Also, the Binding Reactivity (% WT) turned out to be 66.8 % WT with T107A; 126 % WT with R124A; 69.3 % WT with M185A; 84.8 % WT with M30A; 68 % WT with V44A; 112 % WT in the experiment with R45A. The Binding Reactivity (% WT) with S47A turned out to be 101 % WT; in the experiment with F48A it was 113 % WT.
On to “commercially available anti-Siglec-7 antibody Mab1138 (R&D Systems; Cat. No. MAB 1138)”, for which, in experiment [1], the Percent Siglec-7 Surface Expression, DCs worked out at 96.7%; the Percent Siglec-7 Surface Expression, Macrophages is 98.7%; the Percent Siglec-7 Surface Expression, Microglia turned out to be 80.2%; the Percent Siglec-7 Surface Expression, Monocytes was 99.6%. In experiment [1], this substance returned a Percent Siglec-7 Surface Expression, NK cells of 103% and a Percent Siglec-7 Surface Expression, U937 cells of 98.2%. In experiment [2], this substance yielded a % Positive of 19.9% and an MFI of 175. In addition, in experiment [3], the % Positive was 98.6% and the MFI was found to be 4220. In experiment [4], this substance gave a % Positive of 73.9% and an MFI of 1450. The substance further showed a Percent RBC Binding to Siglec-7 in [5] of 97.1%.
mIgG1 isotype control antibody: in experiment [1], the Percent Siglec-7 Surface Expression, DCs stood at 101%; the Percent Siglec-7 Surface Expression, Macrophages was 100%; the Percent Siglec-7 Surface Expression, Microglia is 88.7%; the Percent Siglec-7 Surface Expression, Monocytes was 96.2%. In experiment [1], this substance registered a Percent Siglec-7 Surface Expression, NK cells of 99.6% and a Percent Siglec-7 Surface Expression, U937 cells of 102%. Also, in experiment [6], the % Positive came out at 10.6% and the MFI amounted to 115. In [7], this substance came in with a % Positive of 21.7% and an MFI of 368. In [8], the % Positive turned out to be 2.8% and the MFI came out at 83. Also, in [9], the Percent RBC Binding to Siglec-7 was 107%.
As for S7.7 MAb (antibody), the Binding Reactivity (% WT) in the experiment with Y50A was determined as 142 % WT; with I72A, 101 % WT; with W74A, 83.7 % WT; with N81A, 5.6 % WT; with T103A, 106 % WT; with K104A, 115 % WT. Also, the Binding Reactivity (% WT) with T107A is 129 % WT; with R124A it was 115 % WT; with M185A it was 74.3 % WT; in the experiment with M30A, 100 % WT; with V44A, 89.3 % WT; with R45A it was 126 % WT. Further, the Binding Reactivity (% WT) with S47A is 118 % WT; with F48A it was 158 % WT.
In experiment [1], mIgG2b isotype control antibody had a Percent Siglec-7 Surface Expression, DCs of 100%; a Percent Siglec-7 Surface Expression, Macrophages of 100%; a Percent Siglec-7 Surface Expression, Microglia of 88.8%; a Percent Siglec-7 Surface Expression, Monocytes of 96.2%. For the same substance, in [1], the Percent Siglec-7 Surface Expression, NK cells was 101% and the Percent Siglec-7 Surface Expression, U937 cells is 99.3%. In [6], this substance came in with a % Positive of 13.9% and an MFI of 128. For the same substance, in experiment [7], the % Positive amounted to 79.5% and the MFI amounted to 2060. In experiment [8], this substance returned a % Positive of 5% and an MFI of 130. The substance further showed a Percent RBC Binding to Siglec-7 in experiment [9] of 102%.
